Experimental data as given in patent US20210230266A1 (SINGAPORE HEALTH SERVICES PTE, published 2021).
Where a chain is given by its changes, count along the chain named.

T1: Human IL-11 (human, UniProt P20809 22-199)
T1 construct: Recombinant human IL-11 (GenScript Cat. No. Z03108-1) or IL-11 secreted by human cells; the mature form is said to have 178 residues; also called recombinant human IL-11; endogenously produced IL-11
T1 sequence: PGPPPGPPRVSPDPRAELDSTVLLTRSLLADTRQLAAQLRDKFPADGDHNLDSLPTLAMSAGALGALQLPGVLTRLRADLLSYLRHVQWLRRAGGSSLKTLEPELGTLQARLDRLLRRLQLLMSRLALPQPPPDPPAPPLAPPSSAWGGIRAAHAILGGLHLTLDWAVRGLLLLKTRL

T2: Mouse IL-11 (mouse, UniProt P47873 22-199, limits assumed)
T2 construct: also called murine IL-11; recombinant murine IL-11
T2 sequence (looked up): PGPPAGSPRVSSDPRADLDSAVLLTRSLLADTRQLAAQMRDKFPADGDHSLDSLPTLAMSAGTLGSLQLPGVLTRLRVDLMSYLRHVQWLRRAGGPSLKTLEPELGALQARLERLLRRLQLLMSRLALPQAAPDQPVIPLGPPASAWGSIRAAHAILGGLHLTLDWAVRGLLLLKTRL

B1: 02G (antibody, IgG1, V domains shown)
VH: QVQLVQSGGGVVQPGRSLRLSCAASGFTFSSYGMHWVRQAPGKGLEWVAVISYDGSNKYYADSVKGRFTISRDNSKNTLYLQMNSLRAEDTAVYYCAKIGATDPLDYWGQGTLVTVSS
VL: QSALTQPRSVSGSPGQSVTLSCTGTSSDVGGYNYVSWYQHYPGKAPKLMIFDVNERSSGVPDRFSGSKSGNTASLTISGLQAEDEADYYCGSYAGRYTWMFGGGTKVTVLG
notes: C91G variant of the YU100-G08 VL
B2: 02I (antibody, IgG1, V domains shown)
VH: B1 VH
VL: B1 VL with G91I
notes: C91I variant of the YU100-G08 VL
B3: 02S (antibody, IgG1, V domains shown)
VH: B1 VH
VL: B1 VL with G91S
notes: C91S variant of the YU100-G08 VL
B4: 02Q (antibody, IgG1, V domains shown)
VH: B1 VH
VL: B1 VL with G91Q
notes: C91Q variant of the YU100-G08 VL
B5: 02L (antibody, IgG1, V domains shown)
VH: B1 VH
VL: B1 VL with G91L
notes: C91L variant of the YU100-G08 VL
B6: YU100-D05 (antibody)
chain: QVQLQQSGGGVVQPGRSLRLSCAASGFTFSSYGMHWVRQAPGKGLEWVAVISYDGSNKYYADSVKGRFTISRDNSKNTLYLQMNSLRAEDTAVYYCAKIGATDPLDYWGQGTLVTVSSGSASAPKLEEGEFSEARVQSALTQPASVSGSPGQLITISCTGTNSDVGGYNYVSWYQQHPGKAPKLMIYDVSNRPSGVSNRFSGSKSGNTASLTISGLQAEDEADYYCCSYAGSYTWVFGGGTKLTVLGQPKAAPSVTLFPPSS
B7: YU100-E04 (antibody)
chain: QVQLQQSGGGVVQPGRSLRLSCAASGFTFSSYGMHWVRQAPGKGLEWVAVISYDGSNKYYADSVKGRFTISRDNSKNTLYLQMNSLRAEDTAVYYCAKIGATDPLDYWGQGTLVTVSSGSASAPKLEEGEFSEARVQSALTQPRSVSGSPGQSVTISCTGTSSDVGGYNYVSWYQQHPGKTPKLMIYDVTKRPSGVPDHFSGSKSGNTASLTISGLQAEDEADYYCCSYAGSHIWVFGGGTKLTVLGQPKAAPSVTLFPPSS
B8: YU100-E01 (antibody)
chain: QVQLQQSGGGVVQPGRSLRLSCAASGFTFSSYGMHWVRQAPGKGLEWVAVISYDGSNKYYADSVKGRFTISRDNSKNTLYLQMNSLRAEDTAVYYCAKIGATDPLDYWGQGTLVTVSSGSASAPKLEEGEFSEARVQSALTQPASVSGSPGQSITISCTGTSNDIGAYNYVSWYQQHPGKAPKLLIYDVNNRPSGVSDRFSGSKSGNTASLTISGLQAEDEADYYCCSYAGSYSWVFGGGTKLTVLGQPKANPTVTLFPPSS
B9: YU100-D02 (antibody)
chain: QVRLVQSGGGVVQPGRSLRLSCAASGFTFSSYGMHWVRQAPGKGLEWVAVISYDGSNKYYADSVKGRFTISRDNSKNTLYLQMNSLRAEDTAVYYCAKIGATDPLDYWGQGTLVTVSSGSASAPKLEEGEFSEARVQSALTQPRSVSGSPGQSVTISCTGTSGDVGTYNYVSWYQQHPGKAPKLMIFDVSKRPSGVPDRFSGSKSGNTASLTISGLQAEDEADYYCNSYAGSYTWVFGGGTKLTVLGQPKAAPSVTLFPPSS
B10: YU100-D11 (antibody)
chain: B9 chain with R3Q, G163S, D164N, T167G, F187Y, D223N, N227A, S232N, T234N
B11: YU100-E05 (antibody)
chain: B7 chain with Q1E, Q5V, S138A, A139V, T181A, T190S, H199R, H233Y, I234S
B12: YU100-E06 (antibody)
chain: QVQLVESGGGVVQPGRSLRLSCAASGFTFSSYGMHWVRQAPGKGLEWVAVISYDGSNKYYADSVKGRFTISRDNSKNTLYLQMNSLRAEDTAVYYCAKIGATDPLDYWGQGTLVTVSSGSASAPKLEEGEFSEARVQSALTQPASVSGFPEQSITISCTGTSSDVGGYDYVSWYQQHPGKAPKLMIYDVTNRPSGVSNRFSGSKSGNTASLTISGLQPEDEADYYCSSYTSNTTWVFGGGTKLTVLRQPKAAPSVTLFPPSS
B13: YU112-E07 (antibody)
chain: QVQLVQSGGGVVQPGRSLRLSCAASGFTFGSYGMHWVRQAPGKGLEWVAVISYDGSNKYYADSVKGRFTISRDNSKNTLYLQMNSLRAEDTAVYYCAKGSYYFDYWGQGTLVTVSSGSASAPKLEEGEFSEARVEIVMTQSPDSLAVSLGERATINCKSSQSVNSAYLAWYQHKPGQPPRLLIYGASRRVTGVPDRFSGSGSGTDFTLTISSLQPEDFATYYCQQSYSDPRWTFGQGTKVEIK

Target: T1, Human IL-11
Test: SPR (BIAcore T200) single cycle kinetics, human IL-11 on CM5 chip, 1:1 model
Description: HEK293 EBNDA cells were transfected with vectors encoding scFv corresponding to YU100-H01, 01A, 01G, 01I, 01L, 01Q, 01S, 01T, 01V, YU100-G08, 02A, 02G, 02I, 02L, 02Q, 02S, 02T or 02V.

| Binder | Kd [nM] | koff [s⁻¹] | kon [M⁻¹ s⁻¹] |
| --- | --- | --- | --- |
| B1 | 1980 | 0.0537 | 27200 |
| B2 | 2.89 | 0.00238 | 825000 |
| B3 | 4.99 | 0.00639 | 1.28e+06 |
| B4 | 5.84 | 0.00249 | 426000 |
| B5 | 4.36 | 0.00202 | 463000 |

Target: T1, Human IL-11
Test: ELISA on coated recombinant human IL-11 (100 ng/well), scFv-Fc
Experimental: The light chain shuffled anti-IL-11 antibodies were analysed to determine the EC50 for binding to human IL-11 by ELISA according to standard methods. Briefly, wells of microtiter plates were coated with recombinant human IL-11 (100 ng/well), scFv-Fc comprising the VH and VL domains of the clones were added in a dilution series and antibody binding was detected using a polyclonal antibody detection system.

| Binder | EC50 [µg/mL] |
| --- | --- |
| B6 | 0.042 |
| B7 | 0.036 |
| B8 | 0.03 |
| B9 | 0.022 |
| B10 | 0.038 |
| B11 | 0.027 |
| B12 | 0.024 |
| B13 | 0.058 |

Target: T1, Human IL-11
Test: cell-based or functional assay

| Binder | MMP2 production, Experiment 1 (human atrial fibroblasts + TGFB1) [ng/mL] | MMP2 production, Experiment 2 (human atrial fibroblasts + TGFB1) [ng/mL] |
| --- | --- | --- |
| B6 | 53.3 | 48.8 |
| B7 | 50 | 43.5 |
| B8 | 59.3 | 51.8 |
| B9 | 49.6 | 42.2 |
| B10 | 51.2 | 47.2 |
| B11 | 56.3 | 50.2 |
| B12 | 54.1 | 48.2 |
| B13 | 53.5 | 49.1 |

Target: T2, Mouse IL-11
Test: ELISA
Experimental: (§1) The soluble scFv were produced by recombinant expression in E. coli, and analysed for their ability to bind to human IL-11 and murine IL-11 by ELISA. Briefly, the respective antigen was coated to wells of an ELISA plate, the cell culture supernatant containing the respective scFv was added at a 1:2 dilution, and binding was detected.

| Binder | mIL11 - average signal |
| --- | --- |
| B6 | 0.284 |
| B7 | 0.472 |
| B8 | 0.238 |
| B9 | 0.346 |
| B10 | 0.475 |
| B11 | 0.275 |
| B12 | 0.309 |
| B13 | 0.561 |

Target: T1, Human IL-11
Test: ELISA
Experimental: as §1

| Binder | hIL11 - average signal |
| --- | --- |
| B6 | 0.223 |
| B7 | 0.36 |
| B8 | 0.207 |
| B9 | 0.268 |
| B10 | 0.447 |
| B11 | 0.16 |
| B12 | 0.173 |
| B13 | 0.71 |
